Experimental data reported in the supplement of paper PMC9876800.

System: peptide library, one residue held at a place counted from the S/T acceptor
Assay: relative phosphorylation of the sub-library (ratio to the mean residue at this position); higher = residue favoured
Conditions: human
How it was run: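 Purified recombinant kinases, either human or orthologue constructs, were incubated in 384-well plates with biotinylated degenerate peptide sub-libraries. Each sub-library fixed one residue at one position around a central Ser/Thr. Peptides at 50 μM and 50 μM ATP spiked with γ-32P-ATP were used for 90 min under kinase-specific conditions, and spots on streptavidin membranes were phosphorimaged and quantified by densitometry. Relative sub-library phosphorylation is expressed as a ratio to the mean residue at that position.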

Sequence of STK32C, construct: aa66-end (Q86UX6 66-486, looked up): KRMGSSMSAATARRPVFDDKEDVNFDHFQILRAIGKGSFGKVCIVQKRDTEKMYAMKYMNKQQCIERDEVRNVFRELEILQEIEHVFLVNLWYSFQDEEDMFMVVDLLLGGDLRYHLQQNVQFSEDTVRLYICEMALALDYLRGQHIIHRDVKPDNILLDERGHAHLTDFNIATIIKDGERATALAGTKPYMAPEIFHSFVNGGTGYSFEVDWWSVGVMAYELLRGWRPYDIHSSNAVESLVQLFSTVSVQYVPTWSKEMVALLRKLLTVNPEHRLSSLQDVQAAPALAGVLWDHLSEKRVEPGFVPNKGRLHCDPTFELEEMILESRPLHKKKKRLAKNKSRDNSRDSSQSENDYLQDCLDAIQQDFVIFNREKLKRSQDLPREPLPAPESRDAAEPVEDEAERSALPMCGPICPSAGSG

STK32C, construct: aa66-end (from UniProt Q86UX6)
relative phosphorylation
Conditions	at +1	at +2	at +3	at +4	at -1	at -2	at -3	at -4	at -5
A fixed	0.586	0.613	0.769	0.982	0.776	0.864	0.945	1.11	1.1
D fixed	0.55	0.69	0.689	0.866	0.807	0.64	0.957	1.38	1.18
E fixed	1.12	1.13	0.957	1.46	0.767	0.801	1.03	1.24	0.887
F fixed	2.08	1.21	1.08	0.741	0.739	1.04	0.611	0.759	0.924
G fixed	0.541	0.564	0.682	0.907	1.26	0.918	0.985	1.42	1.32
H fixed	0.588	1.04	1.1	1.02	0.849	0.895	0.645	0.763	0.862
I fixed	1.92	1.03	1.51	0.836	0.592	0.773	0.758	0.812	0.912
K fixed	0.671	0.572	1.05	1.19	1.14	0.826	0.951	0.962	1.05
L fixed	0.965	1.19	0.968	0.832	0.809	1.33	0.772	0.756	0.954
M fixed	1.77	1.09	0.944	0.892	1.09	1.12	0.745	0.94	0.923
N fixed	0.651	0.755	0.836	0.992	1.04	0.841	0.76	0.93	0.882
P fixed	0.399	0.362	0.54	1.21	1.73	1.09	1.04	1.14	1.06
Q fixed	1.18	0.714	0.917	1.07	1.08	0.824	0.796	0.838	0.779
R fixed	1.06	0.743	1.23	1.25	1.97	2.49	3.68	1.38	1.43
V fixed	1.14	0.809	1.33	0.798	0.779	0.745	0.814	0.883	0.854
W fixed	0.863	2.44	1.21	1.05	0.672	0.887	0.698	0.86	0.954
Y fixed	0.919	2.05	1.18	0.899	0.909	0.911	0.804	0.829	0.927
pThr fixed	1.03	2.66	3.27	2.05	1.08	1.28	7.04	1.72	1.18
pTyr fixed	2.11	71.5	5.77	9.82	1.41	2.55	1.39	1.07	1.07
